Test results taken from PMC4936993, “Preparation of a functional fluorescent human Fas ligand extracellular domain derivative using a three-dimensional structure guided site-specific fluorochrome conjugation” (SpringerPlus, 2016).

Target: T1, FL-5Mal conjugated NFG1CG4-hFasLECD (human, UniProt P48023 139-281, N184Q | N250Q, Fluorescein-5-Maleimide conjugated to the unpaired cysteine in the N-terminal tag sequence (estimated 2.5 per trimer, approximately 83 % of the cysteines))
T1 construct: linker of the N-terminal tag, between FLAG (DYKDDDDK) and residue 139 of hFasLECD; printed in three-letter code; its Cys is the conjugation site; human Fas ligand (CD178) extracellular domain with residues 103-138 deleted: hFasLECD (139-281, N184Q, N250Q); It calls the protein a trimer in words only; also called Fluorescein-5-Maleimide conjugated human Fas ligand extracellular domain derivative; …
T1 sequence: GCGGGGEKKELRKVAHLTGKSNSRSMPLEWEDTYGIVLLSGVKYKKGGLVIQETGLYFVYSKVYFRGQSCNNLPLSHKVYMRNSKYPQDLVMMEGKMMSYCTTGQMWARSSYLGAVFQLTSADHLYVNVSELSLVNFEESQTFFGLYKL
Assay: SEC; mixtures of hFasRECD-Fc and the conjugate in several amount ratios on Superdex 200 10/300 GL; 50 mM Tris-hydrochloride, 150 mM sodium chloride, pH 7.5; 0.5 ml/min; absorbance at 280 and 495 nm
Settings: both partners purified

B1: human Fas receptor extracellular domain—human IgG1 Fc domain fusion protein (Fc fusion, UniProt P25445 26-173, looked up)
chain: QVTDINSKGLELRKTVTTVETQNLEGLHHDGQFCHKPCPPGERKARDCTVNGDEPDCVPCQEGKEYTDKAHFSSKCRRCRLCDEGHGLEVEINCTRTQNTKCRCKPNFFCNSTVCEHCDPCTKCEHGIIKECTLTSNTKCKEEGSRSN
notes: human Fas receptor (CD95) extracellular domain; also called hFasRECD-Fc; source: baculovirus—Bombyx mori larvae expression system, purified (Hi-Trap Protein G HP, Mono Q 10/10; main peak also by Superdex 200)
Question: Does B1 bind?
Answer: Result: binds
